Measurements: patent US20200199204A1 (UNITED STATES OF AMERICA AS REPRESENTED BY THE SECRETARY …, published 2020)

B1: CAP256-VRC26.10 (antibody, V domains shown)
VH: QAILVESGGGVVQPGRSLRLSCAASQFTFSGHGLHWVRQAPGKGLEWVASISFAGTKMDYADSVKGRFAISRDNSKNTLYLQMNSLRVEDTALYYCAKDMREYECEYWTSDYYDFGRPQPCIDRRGVVGIFDMWGQGTMVTVST
VL: QSVLTQPPSVSAAPGQKVTISCSGSSSNIGDNYVSWYQHLPGTAPKLLIYENTRRPSGIPDRFSGSKSGTSATLAITGLQTGDEADYYCGTWDVRPNRGAVFGTGTKVTVLG
B2: CAP256-VRC26.11 (antibody, V domains shown)
VH: EVQLVESGGGVVPPGKSLTLSCVASRFTFSAFGMHWVRQAPGKGLEWVASISFAGIKKYYADSVKGRFSISRDNSNTLFLQMNGLRGEDTGLYHCVKDMRELECEEWASDYYDFGKPQPCLDRRGVSGISAWWGPGTMVTVSS
VL: QSVLTQPPSVSAAPGQNVTISCSGPPSHIEKNDVSWYQRLPGMAPKMVIYESKRRPLGIPVRFSASRSGSSATLVITGLQTADEADYYCGTWDGRMNFGTGTTVSVLG
B3: CAP256-VRC26.12 (antibody, V domains shown)
VH: EVQLVQSGGGVVQPGRSLRLSCAAPYFEFGRYGFHWVRQAPGKGLEWVASISFAGRDYYHSPSVWGRFTISRDNSKNTLYLQMNSLRIEDTALYFCARDLRESECEEWESDYYDFGKKGPCVKPRGVAGGLDLWGQGTMVIVSS
VL: QSVLTQPPSVSTAPGQTVTVSCSGGTSNTGNNFVSWYQHLPGTAPKLLIYENNKRPLGVPDRFSGAKSGTSATLAITGLQTGDEGDYYCATWSGSLNIGTGTKVSVLG

The binders below were run against HIV-1 Env of REJO.67 (HIV-1) (assay: cell-based or functional assay).

Binder	neutralization IC50
B1	> 50 µg/mL
B2	> 50 µg/mL
B3	> 50 µg/mL

What follows are binders tested against HIV-1 Env of ZM249.1 (HIV-1) (assay: cell-based or functional assay).

Binder	neutralization IC50
B1	> 50 µg/mL
B2	34.5 µg/mL
B3	> 50 µg/mL

These binders were tested against HIV-1 Env of QH0692.42 (HIV-1) (assay: cell-based or functional assay).

Binder	neutralization IC50
B1	> 50 µg/mL
B2	> 50 µg/mL
B3	> 50 µg/mL

These binders were tested against HIV-1 Env of Q842.d12 (HIV-1) (assay: cell-based or functional assay).

Binder	neutralization IC50
B1	> 50 µg/mL
B2	> 50 µg/mL
B3	> 50 µg/mL

The binders below were run against HIV-1 Env of CAAN.A2 (HIV-1) (assay: cell-based or functional assay).

Binder	neutralization IC50
B1	> 50 µg/mL
B2	> 50 µg/mL
B3	> 50 µg/mL

What follows are binders tested against HIV-1 Env of PVO.04 (HIV-1) (assay: cell-based or functional assay).

Binder	neutralization IC50
B1	2.48 µg/mL
B2	10.8 µg/mL
B3	> 50 µg/mL

These binders were tested against HIV-1 Env of BG505.w6m (HIV-1) (assay: cell-based or functional assay).

Binder	neutralization IC50
B1	> 50 µg/mL
B2	4.2 µg/mL
B3	> 50 µg/mL

The binders below were run against HIV-1 Env of ZM214.15 (HIV-1) (assay: cell-based or functional assay).

Binder	neutralization IC50
B1	> 50 µg/mL
B2	> 50 µg/mL
B3	> 50 µg/mL

What follows are binders tested against HIV-1 Env of RHPA.7 (HIV-1) (assay: cell-based or functional assay).

Binder	neutralization IC50
B1	> 50 µg/mL
B2	> 50 µg/mL
B3	> 50 µg/mL

What follows are binders tested against HIV-1 Env of UG037.8 (HIV-1) (assay: cell-based or functional assay).

Binder	neutralization IC50
B1	> 50 µg/mL
B2	> 50 µg/mL
B3	> 50 µg/mL

The binders below were run against HIV-1 Env of TRO.11 (HIV-1) (assay: cell-based or functional assay).

Binder	neutralization IC50
B1	> 50 µg/mL
B2	> 50 µg/mL
B3	> 50 µg/mL

These binders were tested against HIV-1 Env of 6405.v4.c34 (HIV-1) (assay: cell-based or functional assay).

Binder	neutralization IC50
B1	> 50 µg/mL
B2	> 50 µg/mL
B3	> 50 µg/mL

These binders were tested against HIV-1 Env of C1080.c3 (HIV-1) (assay: cell-based or functional assay).

Binder	neutralization IC50
B1	> 50 µg/mL
B2	0.018 µg/mL
B3	> 50 µg/mL

The binders below were run against HIV-1 Env of Q769.d22 (HIV-1) (assay: cell-based or functional assay).

Binder	neutralization IC50
B1	> 50 µg/mL
B2	> 50 µg/mL
B3	> 50 µg/mL

What follows are binders tested against HIV-1 Env of DU156.12 (HIV-1) (assay: cell-based or functional assay).

Binder	neutralization IC50
B1	> 50 µg/mL
B2	> 50 µg/mL
B3	> 50 µg/mL

Each binder was assayed against HIV-1 Env of KER2008.12 (HIV-1) (assay: cell-based or functional assay).

Binder	neutralization IC50
B1	> 50 µg/mL
B2	> 50 µg/mL
B3	> 50 µg/mL

What follows are binders tested against HIV-1 Env of 6535.3 (HIV-1) (assay: cell-based or functional assay).

Binder	neutralization IC50
B1	> 50 µg/mL
B2	> 50 µg/mL
B3	> 50 µg/mL

Each binder was assayed against HIV-1 Env of CAP256.PI (HIV-1) (assay: cell-based or functional assay).

Binder	neutralization IC50
B1	> 50 µg/mL
B2	> 50 µg/mL
B3	> 50 µg/mL

Each binder was assayed against HIV-1 Env of AC10.29 (HIV-1) (assay: cell-based or functional assay).

Binder	neutralization IC50
B1	> 50 µg/mL
B2	> 50 µg/mL
B3	> 50 µg/mL

These binders were tested against HIV-1 Env of WITO.33 (HIV-1) (assay: cell-based or functional assay).

Binder	neutralization IC50
B1	> 50 µg/mL
B2	> 50 µg/mL
B3	> 50 µg/mL

These binders were tested against HIV-1 Env of MB539.2B7 (HIV-1) (assay: cell-based or functional assay).

Binder	neutralization IC50
B1	> 50 µg/mL
B2	> 50 µg/mL
B3	> 50 µg/mL

What follows are binders tested against HIV-1 Env of Q168.a2 (HIV-1) (assay: cell-based or functional assay).

Binder	neutralization IC50
B1	> 50 µg/mL
B2	> 50 µg/mL
B3	> 50 µg/mL

These binders were tested against HIV-1 Env of ZM197.7 (HIV-1) (assay: cell-based or functional assay).

Binder	neutralization IC50
B1	0.346 µg/mL
B2	0.055 µg/mL
B3	> 50 µg/mL

The binders below were run against HIV-1 Env of ZM109.4 (HIV-1) (assay: cell-based or functional assay).

Binder	neutralization IC50
B1	> 50 µg/mL
B2	> 50 µg/mL
B3	> 50 µg/mL

Each binder was assayed against HIV-1 Env of Q259.d2.17 (HIV-1) (assay: cell-based or functional assay).

Binder	neutralization IC50
B1	24.6 µg/mL
B2	> 50 µg/mL
B3	> 50 µg/mL

These binders were tested against HIV-1 Env of CAP256.SU (HIV-1) (assay: cell-based or functional assay).

Binder	neutralization IC50
B1	0.031 µg/mL
B2	0.055 µg/mL
B3	0.032 µg/mL

Each binder was assayed against HIV-1 Env of DU422.01 (HIV-1) (assay: cell-based or functional assay).

Binder	neutralization IC50
B1	8.2 µg/mL
B2	11.5 µg/mL
B3	> 50 µg/mL

The binders below were run against HIV-1 Env of 191821.E6.1 (HIV-1) (assay: cell-based or functional assay).

Binder	neutralization IC50
B1	> 50 µg/mL
B2	> 50 µg/mL
B3	> 50 µg/mL

What follows are binders tested against HIV-1 Env of CAP45.G3 (HIV-1) (assay: cell-based or functional assay).

Binder	neutralization IC50
B1	> 50 µg/mL
B2	> 50 µg/mL
B3	> 50 µg/mL

What follows are binders tested against HIV-1 Env of CAP244.D3 (HIV-1) (assay: cell-based or functional assay).

Binder	neutralization IC50
B1	> 50 µg/mL
B2	> 50 µg/mL
B3	> 50 µg/mL

Each binder was assayed against HIV-1 Env of 0260.v5.c36 (HIV-1) (assay: cell-based or functional assay).

Binder	neutralization IC50
B1	> 50 µg/mL
B2	> 50 µg/mL
B3	> 50 µg/mL

The binders below were run against HIV-1 Env of CAP210.E8 (HIV-1) (assay: cell-based or functional assay).

Binder	neutralization IC50
B1	0.1 µg/mL
B2	0.073 µg/mL
B3	0.072 µg/mL

What follows are binders tested against HIV-1 Env of KER2018.11 (HIV-1) (assay: cell-based or functional assay).

Binder	neutralization IC50
B1	0.335 µg/mL
B2	1.76 µg/mL
B3	> 50 µg/mL

Each binder was assayed against HIV-1 Env of ZM233.6 (HIV-1) (assay: cell-based or functional assay).

Binder	neutralization IC50
B1	0.228 µg/mL
B2	0.322 µg/mL
B3	> 50 µg/mL

The binders below were run against HIV-1 Env of MB201 (HIV-1) (assay: cell-based or functional assay).

Binder	neutralization IC50
B1	> 50 µg/mL
B2	> 50 µg/mL
B3	> 50 µg/mL

These binders were tested against HIV-1 Env of CM244.ec1 (HIV-1) (assay: cell-based or functional assay).

Binder	neutralization IC50
B1	0.914 µg/mL
B2	26.7 µg/mL
B3	> 50 µg/mL

Each binder was assayed against HIV-1 Env of ZM53.12 (HIV-1) (assay: cell-based or functional assay).

Binder	neutralization IC50
B1	0.072 µg/mL
B2	0.081 µg/mL
B3	0.211 µg/mL

These binders were tested against HIV-1 Env of THRO.18 (HIV-1) (assay: cell-based or functional assay).

Binder	neutralization IC50
B1	> 50 µg/mL
B2	> 50 µg/mL
B3	> 50 µg/mL

What follows are binders tested against HIV-1 Env of SC422.8 (HIV-1) (assay: cell-based or functional assay).

Binder	neutralization IC50
B1	> 50 µg/mL
B2	> 50 µg/mL
B3	> 50 µg/mL

What follows are binders tested against HIV-1 Env of TRJO.58 (HIV-1) (assay: cell-based or functional assay).

Binder	neutralization IC50
B1	> 50 µg/mL
B2	> 50 µg/mL
B3	> 50 µg/mL

The binders below were run against HIV-1 Env of DU172.17 (HIV-1) (assay: cell-based or functional assay).

Binder	neutralization IC50
B1	> 50 µg/mL
B2	> 50 µg/mL
B3	> 50 µg/mL

These binders were tested against HIV-1 Env of ZM135.10a (HIV-1) (assay: cell-based or functional assay).

Binder	neutralization IC50
B1	> 50 µg/mL
B2	> 50 µg/mL
B3	> 50 µg/mL

The binders below were run against HIV-1 Env of 96ZM651.02 (HIV-1) (assay: cell-based or functional assay).

Binder	neutralization IC50
B1	> 50 µg/mL
B2	> 50 µg/mL
B3	> 50 µg/mL

What follows are binders tested against HIV-1 Env of Q461.e2 (HIV-1) (assay: cell-based or functional assay).

Binder	neutralization IC50
B1	> 50 µg/mL
B2	> 50 µg/mL
B3	> 50 µg/mL

These binders were tested against HIV-1 Env of Q23.17 (HIV-1) (assay: cell-based or functional assay).

Binder	neutralization IC50
B1	2.59 µg/mL
B2	> 50 µg/mL
B3	> 50 µg/mL

The binders below were run against HIV-1 Env of 3016.V5.c36 (HIV-1) (assay: cell-based or functional assay).

Binder	neutralization IC50
B1	0.017 µg/mL
B2	0.3 µg/mL
B3	7.93 µg/mL

What follows are binders tested against HIV-1 Env of RW020.2 (HIV-1) (assay: cell-based or functional assay).

Binder	neutralization IC50
B1	> 50 µg/mL
B2	> 50 µg/mL
B3	> 50 µg/mL
